Source: PMC2002509, “Site-Directed Mutations in the C-Terminal Extension of Human αB-Crystallin Affect Chaperone Function and Block Amyloid Fibril Formation” (PLoS ONE, 2007)

Assays:
[1] = molecular target: insulin B-chain (bovine pancreas insulin reduced with DTT) (bovine, UniProt P01317 25-54); assay: cell-based or functional assay
[2] = molecular target: the molecule itself; assay: SEC; size-exclusion HPLC, Phenomenex BioSep SEC S4000 column; mobile phase 50 mM sodium phosphate buffer, pH 7.2; 10 µL of a 10 mg/mL sample, 0.5 mL/min; calibrated with mass standards; self-association into oligomers

Chain of insulin B-chain (bovine pancreas insulin reduced with DTT) (P01317 25-54): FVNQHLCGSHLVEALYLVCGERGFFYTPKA

| decrease in chaperone assay: percentage protection against DTT-induced precipitation of the insulin B-chain (light scattering at 340 nm, 37°C, 1.0:0.14 molar ratio of insulin:αB-crystallin, after 90 …) [1] | Binder | binding result [2] |
| --- | --- | --- |
| 68% | I159A/I161A αB-crystallin (natural protein, human, UniProt P02511 1-175, looked up, αB-crystallin, human, SwissProt P02511, with I159A and I161A (I-X-I motif); ESI-MS mass 20074.4 Da; The measured mass fits the whole untagged protein with both changes; also called I159A/I161A mutant; source: dialyzed against 50 mM phosphate buffer) MDIAIHHPWIRRPFFPFHSPSRLFDQFFGEHLLESDLFPTSTSLSPFYLRPPSFLRAPSWFDTGLSEMRLEKDRFSVNLDVKHFSPEELKVKVLGDVIEVHGKHEERQDEHGFISREFHRKYRIPADVDPLTITSSLSSDGVLTVNGPRKQVSGPERTAPATREEKPAVTAAPKK | binds |
|  | K175L αB-crystallin (natural protein, human, UniProt P02511 1-175, looked up, αB-crystallin, human, SwissProt P02511, with K175L; ESI-MS mass 20143.9 Da; The measured mass fits the whole untagged protein with the change; also called K175L mutant) MDIAIHHPWIRRPFFPFHSPSRLFDQFFGEHLLESDLFPTSTSLSPFYLRPPSFLRAPSWFDTGLSEMRLEKDRFSVNLDVKHFSPEELKVKVLGDVIEVHGKHEERQDEHGFISREFHRKYRIPADVDPLTITSSLSSDGVLTVNGPRKQVSGPERTIPITREEKPAVTAAPKL | binds |
|  | Wild-type human αB-crystallin (natural protein, UniProt P02511 1-175, looked up, αB-crystallin, human, SwissProt P02511; Polydisperse oligomer; also called αB-WT; wild-type αB-crystallin) MDIAIHHPWIRRPFFPFHSPSRLFDQFFGEHLLESDLFPTSTSLSPFYLRPPSFLRAPSWFDTGLSEMRLEKDRFSVNLDVKHFSPEELKVKVLGDVIEVHGKHEERQDEHGFISREFHRKYRIPADVDPLTITSSLSSDGVLTVNGPRKQVSGPERTIPITREEKPAVTAAPKK | binds |
|  | K174A/K175A αB-crystallin (natural protein, human, UniProt P02511 1-175, looked up, αB-crystallin, human, SwissProt P02511, with K174A and K175A; ESI-MS mass 20044.8 Da; The measured mass fits the whole untagged protein with both lysines changed to alanine, although the printed primer reads GCG AAG; also called K174A/K175A mutant) MDIAIHHPWIRRPFFPFHSPSRLFDQFFGEHLLESDLFPTSTSLSPFYLRPPSFLRAPSWFDTGLSEMRLEKDRFSVNLDVKHFSPEELKVKVLGDVIEVHGKHEERQDEHGFISREFHRKYRIPADVDPLTITSSLSSDGVLTVNGPRKQVSGPERTIPITREEKPAVTAAPAA | binds |
|  | E164A/E165A αB-crystallin (natural protein, human, UniProt P02511 1-175, looked up, αB-crystallin, human, SwissProt P02511, with E164A and E165A; ESI-MS mass 20043.0 Da; The measured mass fits the whole untagged protein with both changes; also called E164A/E165A mutant) MDIAIHHPWIRRPFFPFHSPSRLFDQFFGEHLLESDLFPTSTSLSPFYLRPPSFLRAPSWFDTGLSEMRLEKDRFSVNLDVKHFSPEELKVKVLGDVIEVHGKHEERQDEHGFISREFHRKYRIPADVDPLTITSSLSSDGVLTVNGPRKQVSGPERTIPITRAAKPAVTAAPKK | binds |
